From US11766480B2, “Multivalent peptoid oligomers, pharmaceutical compositions and methods of using same” (NEW YORK UNIVERSITY, priority 2012, dated 2023)
Entries after “also recorded” stand apart in the source; their conditions may differ.

Key:
HEK293 cells = experiment: Cell toxicity assay (CyQUANT cell viability), HEK293; type: cell-based, human; details: 1 μM, 72 hours
Procedure: (§1) To evaluate the general cell toxicity of oligomers 6 and 7, a cell viability assay was utilized.
(§2) HEK293 and PC3 cells were seeded in triplicate on 96-well plates (Corning) in DMEM and HAM'S—F media supplemented with 10% FBS, 1% L-Gln and 1% PS, respectively. HEK293 and PC3 cells were then treated with conjugates (1 μM and 20 μM, respectively) and allowed to incubate at 37° C. for 72 hours. Following treatment, relative cell viability was measured using the CyQUANT reagent according to the manufacturer's instructions. Fluorescence intensity was quantified as described above. All data were processed using GraphPad Prism.

PC3 cells = experiment: Cell toxicity assay (CyQUANT cell viability), PC3; type: cell-based; details: 20 μM, 72 hours
Procedure: as §1, §2

LNCaP-abl cells = experiment: Cell-cycle distribution by FACS / flow cytometry; type: cell-based, human; details: 1 μM, 48 h
Procedure: LNCaP-abl cells were grown on 10 cm culture dishes (BD Falcon) to approximately 70% confluence in RPMI media supplemented with 10% charcoal-stripped FBS, 1% L-Gln, and 1% PS. Cells were then treated with conjugate 1 or 2 to a final concentration of 1 μM and allowed to incubate at 37° C. for 48 h. Following treatment, cells were fixed and suspended in 2 mL of 1:3 HBSS:Phosphate-Citrate Buffer (pH 8.0) containing 0.1% Triton X-100. Cells were centrifuged (2,000 rpm for 5 min) and suspended in 1 mL of propidium-iodide solution (1 mg propidium iodine, 10 mg EDTA, 250 μL Igepal, and 2.2 μg μL-1 RNAase in 50 mL of PBS). Cells were then harvested for cell-cycle analysis by filtration (CellTrics, 100 μm) into conical tubes (Falcon) and analyzed by flow cytometry (Becton-Dickinson FACScalibur). All data were analyzed using FlowJo software.
The inventors analyzed cell-cycle distribution of LNCaP-abl cells treated with either oligomer 6 or 7 utilizing fluorescence-activated cell sorting (FACS) analysis. These studies provide a quantitative assessment of normal and apoptotic nuclei along with cell distribution in the G0/G1, S, and G2/M phases of the cell-cycle.

AR = target: T1, AR (Homo sapiens, UniProt P10275, T878A); experiment: Chromatin immunoprecipitation of AR at the PSA enhancer in LNCaP-abl cells; type: cell-based; details: R-1881 10 nM alone, positive control
T1 construct: endogenous in cells; host or cells: LNCaP-abl
T1 sequence (P10275 1-920 T878A): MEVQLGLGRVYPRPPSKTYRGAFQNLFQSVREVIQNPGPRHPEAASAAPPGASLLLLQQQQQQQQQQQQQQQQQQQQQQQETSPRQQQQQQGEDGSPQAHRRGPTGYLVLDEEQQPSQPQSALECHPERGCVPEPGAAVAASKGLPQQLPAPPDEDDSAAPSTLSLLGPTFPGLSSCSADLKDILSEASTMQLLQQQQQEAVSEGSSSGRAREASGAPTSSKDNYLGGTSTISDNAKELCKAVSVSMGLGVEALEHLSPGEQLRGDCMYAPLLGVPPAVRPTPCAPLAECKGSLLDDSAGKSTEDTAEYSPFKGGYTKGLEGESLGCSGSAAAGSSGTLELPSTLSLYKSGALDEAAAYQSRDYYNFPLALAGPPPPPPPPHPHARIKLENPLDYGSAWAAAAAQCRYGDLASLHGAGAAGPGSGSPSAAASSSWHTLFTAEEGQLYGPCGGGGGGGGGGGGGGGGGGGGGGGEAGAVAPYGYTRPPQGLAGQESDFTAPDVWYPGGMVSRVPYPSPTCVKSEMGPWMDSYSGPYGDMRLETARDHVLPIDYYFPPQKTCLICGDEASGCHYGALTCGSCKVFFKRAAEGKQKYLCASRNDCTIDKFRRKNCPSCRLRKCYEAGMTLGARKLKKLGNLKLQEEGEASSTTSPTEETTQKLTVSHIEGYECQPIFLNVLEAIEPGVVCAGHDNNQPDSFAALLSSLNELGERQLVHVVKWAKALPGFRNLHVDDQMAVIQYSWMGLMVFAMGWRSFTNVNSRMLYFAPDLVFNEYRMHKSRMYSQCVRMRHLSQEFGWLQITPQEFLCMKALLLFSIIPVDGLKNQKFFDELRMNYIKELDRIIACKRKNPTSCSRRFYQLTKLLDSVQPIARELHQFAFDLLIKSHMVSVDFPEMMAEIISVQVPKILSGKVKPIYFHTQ
Procedure: Following treatment, proteins were double cross-linked with DSP (Pierce) for 20 min and 1% formalin for 10 min. Cells were lysed, and nuclei were collected, lysed in buffer (1% SDS, 50 mM Tris-HCl (pH 8.0), 10 mM EDTA), and sonicated for 12 min (30 s on, 30 s off) utilizing a Bioruptor sonicator (Diagenode, model XL). Sonicated lysates were precleared for 2 h with Protein A/G agarose beads blocked with salmon sperm DNA (Millipore). […] Control ChIP was concurrently performed with the same quantity of normal mouse and rabbit IgG sera. Immunocomplexes were then washed and cross-linking was reversed. DNA was isolated with a PCR purification kit (Qiagen) according to the manufacturer's instructions, and real-time PCR was performed. Relative enrichment of indicated genomic locus was calculated as a percentage of 4% input normalized to IgG. All data were processed using GraphPad Prism.

COCCN(CC(N)=O)C(=O)CN(CCOC)C(=O)CN(CCCn1cc([C@]2(O)CCC3C4CCC5=CC(=O)CC[C@]5(C)C4CC[C@@]32C)nn1)C(=O)CN(CCOC)C(=O)CN(CCOC)C(=O)CN(CCOC)C(=O)CN(CCOC)C(=O)CN(CCOC)C(=O)CN(CCOC)C(=O)CN(CCOC)C(=O)CN(CCOC)C(=O)CNCCCn1cc([C@]2(O)CCC3C4CCC5=CC(=O)CC[C@]5(C)C4CC[C@@]32C)nn1 (stereo partly shown) [Oligomer 6]
cytotoxic effects in HEK293 cells (HEK293 cells): did not exhibit cytotoxic effects; also recorded: cytotoxicity was not observed
cytotoxic effects in AR-deficient PC3 cells (PC3 cells): did not exhibit cytotoxic effects; also recorded: cytotoxicity was not observed
apoptotic cell population (LNCaP-abl cells): no increase in the apoptotic cell population

COCCN1CC(=O)N(CCCn2cc([C@]3(O)CCC4C5CCC6=CC(=O)CC[C@]6(C)C5CC[C@@]43C)nn2)CC(=O)N(CCOC)CC(=O)N(CCOC)CC(=O)N(CCCn2cc([C@]3(O)CCC4C5CCC6=CC(=O)CC[C@]6(C)C5CC[C@@]43C)nn2)CC(=O)N(CCOC)CC1=O (stereo partly shown) [Oligomer 7]
cytotoxic effects in HEK293 cells (HEK293 cells): did not exhibit cytotoxic effects; also recorded: cytotoxicity was not observed
cytotoxic effects in AR-deficient PC3 cells (PC3 cells): did not exhibit cytotoxic effects; also recorded: cytotoxicity was not observed
apoptotic cell population (LNCaP-abl cells): no increase in the apoptotic cell population

C[C@]1(O)CC[C@H]2[C@@H]3CCC4=CC(=O)CCC4=C3C=C[C@@]21C [Oligomer R-1881]
AR recruitment to the PSA enhancer (AR): promoted AR recruitment
